Test results reported in US10358464B2, “Specific binding sites in collagen for integrins and use thereof” (The Texas A&M University System, priority 2005, dated 2019).
Where two headings read alike, the source gives them in different places. Non-standard residues stand in square brackets, D forms with d. Residues, ends and D or L forms follow the SMILES beside them. No end group written: not given here. Hyp = O=C(O)[C@@H]1C[C@@H](O)CN1

How the values were obtained:
[1] = CD temperature-dependent denaturation of triple helix; format: physicochemical; details: CD ellipticity at 225 nm, 20° C./hr, Boltzmann sigmoidal fit
Method: Circular Dichroism (CD) Spectroscopy. Synthetic collagen peptides were analyzed by CD spectroscopy, as described previously (18) with the following modifications. Briefly, peptides were dissolved in HBS to a concentration of 50 μM. CD spectra were collected on a Jasco J720 spectropolarimeter (Tokyo, Japan) from 190 to 240 nm, with bandwidth of 1 nm and integrated for 1 s at 0.2 nm intervals. Samples were measured at room temperature using cuvettes with 0.02 cm path length. For temperature-dependent denaturation analysis, […] of peptides were added to a thermostatically controlled cuvette with a 0.5 cm path length. Thermal transition profiles were recorded at 225 nm as described above with a temperature slope of 20° C./hr. To calculate the temperature melting points, the thermal transition profiles were fitted with Boltzmann sigmoidal model using the GraphPad Prism™ software (GraphPad Software Inc., San Diego, Calif.).

MRC-5 cells = assay: Cell attachment assay on coated substrates; format: cell-based, human; details: increasing coating concentrations, 1.5×10^4 cells per well, 45 min, room temperature
Method: Reagents and Cell Culture. The human recombinant mature type III collagen used for cell attachment assays was purchased from FibroGen. All cell culture media components were purchased from Invitrogen. The human lung fibroblast cell line MRC-5 was purchased from American Type Culture Collection (ATCC) (Manassas, Va.). The cells were cultured and passaged in Dulbecco's modified Eagle's medium (DMEM) supplemented with 10% fetal bovine serum, 100 unit/ml penicillin and 100 μg/ml streptomycin. The cells were grown to subconfluence and passaged every 2-3 days.
Cell attachment assay. MRC-5 cells were starved overnight in serum deficient DMEM containing penicillin and streptomycin, then detached using 1 mM EDTA and 0.025% trypsin at 37° C. for 2 minutes. The cells were washed with PBS and resuspended in DMEM containing 0.2% BSA supplemented with 2 mM MgCl2. 100 μl of the cell suspension (˜1.5×10^5 cells/ml) were added to the microtiter wells coated with different concentrations of collagen or collagen peptides and blocked with PBS containing 0.5% (w/v) BSA. After incubation at room temperature for 45 min, the wells were washed with PBS. Attached cells were fixed with 3% p-formaldehyde for 10 min at room temperature. Following washing with cold Tris-buffered saline (TBS), pH 7.4, cells were fixed again in 20% methanol for 10 min and stained with 0.5% crystal violet for 5 min. The wells were thoroughly washed with distilled water and air-dried. Sodium citrate (0.1 M) was then added to the wells to dissolve the dye and the absorbance at 590 nm was measured. The maximum cell attachment on type III collagen was set to 100% and, residual attachment on BSA was set to 0%.
Adhesion of MRC-5 cells to peptide#1 (SEQ ID NO: 15) substrates. […] Wells in 96-well plates were coated with increasing concentrations of type III collagen, peptide #1 (SEQ ID NO: 15) or #2 (SEQ ID NO: 16) and 1.5×10^4 MRC-5 cells were added to each well. The plate was incubated for 45 min at room temperature and adhering cells were quantified as described herein.

[2] = biological target: T1, α2I binding to type III collagen (Homo sapiens, UniProt P17301); assay: Competition ELISA, inhibition of I domain binding to type III collagen; details: 100 μM peptide, 5 μM α2I, type III procollagen-coated wells
T1 construct: recombinant I domains from integrins α1 and α2 (α1I and α2I); made in house

[3] = biological target: T2, α1I binding to type III collagen (Homo sapiens, UniProt P56199); assay: as above; details: 100 μM peptide, 0.5 μM α1I, type III procollagen-coated wells
T2 construct: recombinant I domains from integrins α1 and α2 (α1I and α2I); made in house

[4] = biological target: T3, α2I (recombinant I domain of integrin α2) (Homo sapiens, UniProt P17301); assay: SPR (BIAcore 3000), I domain binding to immobilized fibrillar collagens; details: equilibrium analysis, 1 mM MgCl2
T3 construct: recombinant I domains from integrins α1 and α2 (α1I and α2I); made in house
Method: Surface Plasmon Resonance (SPR) measurements. For the analyses of interactions between recombinant I domains and fibrillar collagens, SPR measurements were carried out at ambient temperature using the BIAcore 3000 system (BIAcore, Uppsala, Sweden) as described previously (21) with following modifications. First, purified recombinant human procollagens I and III (described above), or bovine mature type II collagen (Sigma) were immobilized on the flow cells of a CM5 chip resulting in 200-700 response units of immobilized protein.
SPR sensorgrams from different injections were overlaid using the BIAevaluation software (BIAcore AB). Data from the steady state portion of the sensorgrams were used to determine the binding affinities. Based on the correlation between the SPR response and change in protein mass on the surfaces of flow cells, values for the binding ratio, νbound, and the concentration of free protein, [P]free, were calculated using the equations described previously (21). Scatchard analysis was performed by plotting νbound/[P]free against νbound in which the negative reciprocal of the slope is the dissociation constant, KD. Nonlinear regression was also performed by plotting νbound against [P]free and fitted with the one-binding class or the two-binding class models using the GraphPad Prism™ software (GraphPad Software Inc., San Diego, Calif.). Results from the two models were compared with respect to the value of R^2 and the degree of freedom of the curve fit. The model that gave KD values outside the experimental data range was excluded. Experimental results were reproducible with at least three independent protein preparations.
The interactions between the two I domains and fibrillar collagens (types I, II and III) were examined by SPR. Solutions of 1 μM α1I or α2I were passed over chips containing immobilized collagen I, II, or III in the presence of 1 mM MgCl2.
The BIAcore 3000 system used in the present invention had higher sensitivity of detection which enabled examination of the interactions between α2I and collagens at a sub-micromolar concentration range. […] The binding affinities of α2I to the three types of collagen appeared to be slightly more variable.

[5] = first line per collagen in Table 2 (unit from b77), read-out: KD, high affinity binding class
[6] = second line per collagen in Table 2 (unit from b77), read-out: KD, low affinity binding class

T3 sequence (P17301 188-365 limits assumed): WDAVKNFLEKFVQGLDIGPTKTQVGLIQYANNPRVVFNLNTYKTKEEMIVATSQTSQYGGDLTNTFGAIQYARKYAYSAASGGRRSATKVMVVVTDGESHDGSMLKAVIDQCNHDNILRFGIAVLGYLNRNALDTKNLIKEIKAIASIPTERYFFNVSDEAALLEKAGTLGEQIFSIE
T2 sequence (P56199 161-360 limits assumed): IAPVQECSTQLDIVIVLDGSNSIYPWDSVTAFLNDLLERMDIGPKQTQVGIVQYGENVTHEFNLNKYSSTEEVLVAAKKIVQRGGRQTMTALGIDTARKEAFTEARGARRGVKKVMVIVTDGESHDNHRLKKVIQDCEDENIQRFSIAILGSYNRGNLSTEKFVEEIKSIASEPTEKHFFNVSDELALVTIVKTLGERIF
T1 sequence (P17301 188-365 limits assumed): as the sequence (P17301 188-365 limits assumed) above

Row | Molecule | Kd [4, 5] [µM] | Kd [4, 6] [µM] | adhesion of MRC-5 cells to coated substrate (MRC-5 cells) | inhibition of binding of α2I to type III collagen [2] | inhibition of binding of α1I to type III collagen [3] | further results
1 | N=C(N)NCCC[C@H](NC(=O)[C@H](CCC(=O)O)NC(=O)CNC(=O)[C@@H]1C[C@@H](O)CN1C(=O)[C@H](CCCNC(=N)N)NC(=O)CNC(=O)[C@@H]1C[C@@H](O)CN1C(=O)[C@@H]1CCCN1C(=O)CNC(=O)[C@@H]1C[C@@H](O)CN1C(=O)[C@@H]1CCCN1C(=O)CNC(=O)[C@@H]1C[C@@H](O)CN1C(=O)[C@@H]1CCCN1C(=O)CN)C(=O)NCC(=O)N1CCC[C@H]1C(=O)N1C[C@H](O)C[C@H]1C(=O)NCC(=O)N1CCC[C@H]1C(=O)N1C[C@H](O)C[C@H]1C(=O)NCC(=O)N1CCC[C@H]1C(=O)N1C[C@H](O)C[C@H]1C(N)=O [GROGER] (H-GP[Hyp]GP[Hyp]GP[Hyp]GR[Hyp]GERGP[Hyp]GP[Hyp]GP[Hyp]-NH2; N-terminus and C-terminus assumed) | – | – | – | – | – | melting temperature (Tm) of triple helix [1]: 41 °C
2 | (GPO)3GAOGERGROGLO(GPO)3 (GP[Hyp]GP[Hyp]GP[Hyp]GA[Hyp]GERGR[Hyp]GL[Hyp]GP[Hyp]GP[Hyp]GP[Hyp]) [peptide #2] | – | – | could not | 60% | 40% | –
3 | (GPO)11 (GPRGRT) [peptide #3, control peptide, reference compound] | – | – | – | did not show any inhibitory activity | did not show any inhibitory activity | –
4 | Collagen I: purified recombinant human procollagen I immobilized for SPR; type I collagen of the cited earlier study | 0.26 ± 0.08 | 3.99 ± 0.82 | – | – | – | Kd ([4]; first line per collagen in Table 2 (unit from b77), listed as type I collagen, read-out: KD, high affinity binding class): ~0.3 µM; Kd ([4]; second line per collagen in Table 2 (unit from b77), listed as type I collagen, read-out: KD, low affinity binding class): ~4 µM

Second part, led by results:

Row | Kd [4, 5] [µM] | Kd [4, 6] [µM] | Molecule | adhesion of MRC-5 cells to coated substrate (MRC-5 cells) | inhibition of binding of α2I to type III collagen [2] | inhibition of binding of α1I to type III collagen [3] | further results
5 | 1.75 | 16.5 ± 3.89 | Collagen II: bovine mature type II collagen (Sigma) | – | – | – | Kd ([4]; second line per collagen in Table 2 (unit from b77), listed as type II collagen, read-out: KD, low affinity binding class): ~16.5 µM
6 | 0.33 ± 0.03 | 14.5 ± 3.41 | Collagen III: recombinant human procollagen III in SPR; human recombinant mature type III collagen (FibroGen) in cell attachment assay (protein, non-natural residues, recombinant human procollagen III in SPR; human recombinant mature type III collagen (FibroGen) in cell attachment assay) QQEAVEGGCSHLGQSYADRDVWKPEPCQICVCDSGSVLCDDIICDDQELDCPNPEIPFGECCAVCPQPPTAPTRPPNGQGPQGPKGDPGPPGIPGRNGDPGIPGQPGSPGSPGPPGICESCPTGPQNYSPQYDSYDVKSGVAVGGLAGYPGPAGPPGPPGPPGTSGHPGSPGSPGYQGPPGEPGQAGPSGPPGPPGAIGPSGPAGKDGESGRPGRPGERGLPGPPGIKGPAGIPGFPGMKGHRGFDGRNGEKGETGAPGLKGENGLPGENGAPGPMGPRGAPGERGRPGLPGAAGARGNDGARGSDGQPGPPGPPGTAGFPGSPGAKGEVGPAGSPGSNGAPGQRGEPGPQGHAGAQGPPGPPGINGSPGGKGEMGPAGIPGAPGLMGARGPPGPAGANGAPGLRGGAGEPGKNGAKGEPGPRGERGEAGIPGVPGAKGEDGKDGSPGEPGANGLPGAAGERGAPGFRGPAGPNGIPGEKGPAGERGAPGPAGPRGAAGEPGRDGVPGGPGMRGMPGSPGGPGSDGKPGPPGSQGESGRPGPPGPSGPRGQPGVMGFPGPKGNDGAPGKNGERGGPGGPGPQGPPGKNGETGPQGPPGPTGPGGDKGDTGPPGPQGLQGLPGTGGPPGENGKPGEPGPKGDAGAPGAPGGKGDAGAPGERGPPGLAGAPGLRGGAGPPGPEGGKGAAGPPGPPGAAGTPGLQGMPGERGGLGSPGPKGDKGEPGGPGADGVPGKDGPRGPTGPIGPPGPAGQPGDKGEGGAPGLPGIAGPRGSPGERGETGPPGPAGFPGAPGQNGEPGGKGERGAPGEKGEGGPPGVAGPPGGSGPAGPPGPQGVKGERGSPGGPGAAGFPGARGLPGPPGSNGNPGPPGPSGSPGKDGPPGPAGNTGAPGSPGVSGPKGDAGQPGEKGSPGAQGPPGAPGPLGIAGITGARGLAGPPGMPGPRGSPGPQGVKGESGKPGANGLSGERGPPGPQGLPGLAGTAGEPGRDGNPGSDGLPGRDGSPGGKGDRGENGSPGAPGAPGHPGPPGPVGPAGKSGDRGESGPAGPAGAPGPAGSRGAPGPQGPRGDKGETGERGAAGIKGHRGFPGNPGAPGSPGPAGQQGAIGSPGPAGPRGPVGPSGPPGKDGTSGHPGPIGPPGPRGNRGERGSEGSPGHPGQPGPPGPPGAPGPCCGGVGAAAIAGIGGEKAGGFAPYYGDEPMDFKINTDEIMTSLKSVNGQIESLISPDGSRKNPARNCRDLKFCHPELKSGEYWVDPNQGCKLDAIKVFCNMETGETCISANPLNVPRKHWWTDSSAEKKHVWFGESMDGGFQFSYGNPELPEDVLDVHLAFLRLLSSRASQNITYHCKNSIAYMDQASGNVKKALKLMGSNEGEFKAEGNSKFTYTVLEDGCTKHTGEWSKTVFEYRTRKAVRLPIVDIAPYDIGGPDQEFGVDVGPVCFL | could support adhesion of MRC-5 cells in a dose-dependent manner | – | – | Kd ([4]; first line per collagen in Table 2 (unit from b77), listed as type III collagen, read-out: KD, high affinity binding class): ~0.3 µM; Kd ([4]; second line per collagen in Table 2 (unit from b77), listed as type III collagen, read-out: KD, low affinity binding class): ~14.5 µM
